Data reported in the DeepSol protein solubility set.

assay: soluble on expression in E. coli; label from the status in PepcDB or PDB records

Sequence | soluble on expression in E. coli
MDIPIPTRQLFINGDWKAPVLNKRIPVINPATQNIIGDIPAATKEDVDVAVAAAKTALTRNKGADWATASGAVRARYLRAIAAKVTEKKPELAKLESIDCGKPLDEAAWDIDDVAGCFEYYADLAEKLDARQKAPVSLPMDTFKSHVLREPIGVVGLITPWNYPMLMATWKVAPALAAGCAAILKPSELASLTCLELGEICKEVGLPPGVLNILTGLGPEAGAPLATHPDVDKVAFTGSSATGSKIMTAAAQLVKPVSLELGGKSPLVVFEDVDLDKAAEWAIFGCFWTNGQICSATSRLILHESIATEFLNRIVKWIKNIKISDPLEEGCRLGPVVSEGQYEKILKFVSNAKSEGATILTGGSRPEHLKKGFFIEPTIITDVTTNMQIWREEVFGPVLCVKTFSTEEEAIDLANDTVYGLGAAVISNDLERCERVTKAFKAGIVWVNCSQPCFTQAPWGGVKRSGFGRELGEWGLDNYLSVKQVTQYISEEPWGWYQPPAKL | soluble
MSLNIIRLLAESLPRISDGNENTDVWVNDMKFKMAYSFLNDDIDVIERELEQTVRSDYPLLSEAGLHLLQAGGKRIRPVFVLLSGMFGDYDINKIKYVAVTLEMIHMASLVHDDVIDDAELRRGKPTIKAKWDNRIAMYTGDYMLAGSLEMMTRINEPKAHRILSQTIVEVCLGEIEQIKDKYNMEQNLRTYLRRIKRKTALLIAVSCQLGAIASGADEKIHKALYWFGYYVGMSYQIIDDILDFTSTEEELGKPVGGDLLQGNVTLPVLYALKNPALKNQLKLINSETTQEQLEPIIEEIKKTDAIEASMAVSEMYLQKAFQKLNTLPRGRARSSLAAIAKYIGKREGHHHHHH | soluble
MVVNKRLILILLFILNTAKSDELSWKGNDFTLYARQMPLAEVLHLLSENYDTAITISPLITATFSGKIPPGPPVDILNNLAAQYDLLTWFDGSMLYVYPASLLKHQVITFNILSTGRFIHYLRSQNILSSPGCEVKEITGTKAVEVSGVPSCLTRISQLASVLDNALIKRKDSAVSVSIYTLKYATAMDTQYQYRDQSVVVPGVVSVLREMSKTSVPTSSTNNGSPATQALPMFAADPRQNAVIVRDYAANMAGYRKLITELDQRQQMIEISVKIIDVNAGDINQLGIDWGTAVSLGGKKIAFNTGLNDGGASGFSTVISDTSNFMVRLNALEKSSQAYVLSQPSVVTLNNIQAVLDKNITFYTKLQGEKVAKLESITTGSLLRVTPRLLNDNGTQKIMLNLNIQDGQQSDTQSETDPLPEVQNSEIASQATLLAGQSLLLGGFKQGKQIHSQNKIPLLGDIPVVGHLFRNDTTQVHSVIRLFLIKASVVNNGISHGLEHHHHHH | soluble
MIVTEHLFAIEDQTECLISALLESDAVQNYKETKKAMYASAEVAQLQKAFLEAKSAFERVEAYGIHAPDFREKQRALRKAKRALDLNEIVANYRFAETNVQTLLDTIGLKIAQLISEDIKVDAGNPFFERGKKHSGCGGSCHAS | not soluble
MESILITGASGFIGSFIVEEALKRKFGVWAGIRPTSSKKYLKNRKIHFLELDFAHPNELRAQLSGHKGTYNKFDYIIHCAGVTKCPDKNTFDYVNYLQTKYFIDTLKALNMVPKQFIYISTLSVFGPVREKDYSPIEAGDVPMPNTAYGLSKLKAELYIQSIPGFPYVIYRPTGVYGPRELDYFLMAKSIRQHVDFSVGFRRQDLTFVYVKDIVQAIFLGIEKKVTRRAYFLTDGKVYNSRVFSDLIQKELGNPFVIHVKCPLIVLKVISLLAEFIATRSGKSSTLNSDKYKIMKQRNWQCDITPAINELGYAPEYDLEKGVRETIDWYKNEGWL | not soluble
MGSDKIHHHHHHMDKIIGLGNALIDVLATLKDDTLLDELELPKGSMQLIDDAKLQQINTKFSQMKTHLATGGSAGNAILGLACLGAGTGFIGKVGNDHYGDFFRKNLQKNNIEDNLLTSEQLPSGVASTFISQDGERTFGTYLGAAASLKAEDLTLEMFKGYAYLFIEGYLVQDHEMILHAIELAKEAGLQICLDMASYNIVENDLEFFSLLINKYVDIVFANEEEAKAFTGEEPEEALRVIAKKCSIAIVKVGANGSYIRKGTEEIKVSAIPVEKVLDTTGAGDYFAAGFLYGLTCGYSLEKCAKIGSILSGNVIQVIGTTISPERWDEIKLNINKVLAE | not soluble
AHHHHHHGSIDLILLAGKLKRIPRMGWLIKGVPNPESVADHSYRVAFITLLLAEELKKKGVEIDVEKALKIAIIHDLGEAIITDLPLSAQKYLNKEEAEAKALKDVLPEYTELFEEYSKALTLEGQLVKIADKLDMIIQAYEYELSGAKNLSEFWNALEDLEKLEISRYLREIIEEVRRLKDDH | soluble
MGSDKIHHHHHHMSPRKPRSPTAPNSSASIAPIPRLMPKLFVLDSNVLMHDPTSLFRFQEHDIYITMTTLEELDNNKKGMSEVARNARQTSRFLDEIVSSAITDIDEGISLQLHGTKNATGRLFLQTQAITNVLPVYLASGSADNQIIGAVKFLHDTHQNRVVTLVSKDINMRIKARALGLAAEDYFNDKVLEDTDVLFSGIQELPEDFWDEHGKDMESWQQSGQTFYRVTGPLAGGFVINQFVYLEHDKPFYAQVKETSGRTAVLQTLKDYTHQKNNVWGITARNREQNFAFNLLMNPEVDFVTLLGQAGTGKTLLTLAAGLMQTLEHKVYSEIIMTRVTVPVGEDIGFLPGTEEEKMTPWMGALEDNLDVLNKTDSSAGEWGRAATLDLIRSRIKIKSLNFMRGRTFINKFLIIDEAQNLTPKQMKTLITRAGPATKVVCLGNIAQIDTPYLSEGSSGLTYVVDRFKGWNHSGHVTLQRGERSRLADYAAEIL | not soluble
MKIVGIYLAAGKSRRTGPGLHKLYLPTGNTLLGNKALHTSLSSNLSDVIVVSNQPSWLLHYTQVERVHILSCEKSCLGQSYSLHCGLEKAESMNADGVVVMLADQPFITVKLLNSLIDSYEHLPQLDYVAASFQGIPQPPILFSKGIFPSLKKLKGDQGARSIFFDKSFQGKITVYSDAKLFYDVNTIEDYNVIKNSLLLEHHHHHH | not soluble
MGSDKIHHHHHHMKNIKIFPKDWLQLHPYKQSTPVDSYYTGIANRIYDIMEKTELVNSFEGEETKQICIRMAAYFEDVISGMGLWRAFILTHKELYGKYLPFYTPDDHYYDDEVNLEDVRFLLWHYTQQYHGYRKGTFVSPDNPANESTGMLIYDLFCKEWTTAPENTRMAKLFALDTRYERQEDYDRLLQWFHYESYILPESARELSDFAHDRWKEQPDLNQEQLNNLLVNSHGMMAYTSKTSLLGLTSPQWLAKILPAEHPDHAVFQNTADESVATLPDDMLEENRQQYETFRKAAGDKLLLYFDKTEDAQTFITETSGLIPAENFHLPEDWQGKKLAIYATPEEGAQVITRDVELIKDENNPFYDANRAAKQALSFFIVKHCSVYFLPELVKRGMLADAQTKSLISPERGKAIIQENWKFLARYFIREYPNR | not soluble
MGSDKIHHHHHHYLNTLQRELENAGIESRLVRRFGYTQEAVDWADAVFSAGGDGTFLMASSRVRTKHKPVIGINTDPQGSEGYMCLMRKLPEENLAGALKKLFSGNFEWLNRQRIRITVTGDDGISDAIELHDQQLNRDPATTRWTDNPRSPAREIEECMSLSPPVKKRMISEAVEIPEVEKETVELPVLALNEVFIGESLSSRVSYYEIGINDAQMLKQKSSGITICTGTGSTSWNFNINKLTEQCVQDLMKIVAEHCNLPQIPHGDKNAVSEICTKFNQQLIFDPDRKQLAFSVRDPIFNATFPPTDPRGFADKICIKSRGYDAHLVIDGGISYRFNDGSEAVMEVRDEDTLRTVVFR | not soluble
MSVLEVKGLTKVYQSKGSVATTALNDINFKIEEGEFVGIMGPSGSGKTTLLNLLATIDKQTSGHVLVNGEEINQMRAAKLAEFRRTHLGFIFQDFNLLDTLSIKENIILPLVMAKKSVNEIDAKVLEIAKFLNIEEILNKKVYEVSGGQQQRAAAARAIIHEPTLILADEPTGNLDSKSAKSLMSALQDLHEQKRVTIAMVTHDPVAASYCERILFIRDGEIFSEIHKGRTKQAFFQEILDVLAMLGGEYHELSPARA | not soluble
MPVRASIEPLTWENAFFGVNSAIVRITSEAPLLTPDALAPWSRVQAKIAASNTGELDALQQLGFSLVEGEVDLALPVNNVSDSGAVVAQETDIPALRQLASAAFAQSRFRAPWYAPDASGRFYAQWIENAVRGTFDHQCLILRAASGDIRGYVSLRELNATDARIGLLAGRGAGAELMQTALNWAYARGKTTLRVATQMGNTAALKRYIQSGANVESTAYWLYR | soluble
GPGSMNIRQRKSERHKEVLRKLSQNGGNKNCFDCGMRGPLYVVSDFGILVCSGCSAVHRSFQHKVKGITMSEFTDDEIARFSVSGNDRARKVWLSTFHDQLPRSGNVMALKDHVHVVFEERRFWSAQELSA | soluble
MNRTLYTLLFHLGLPLVALRLWWRARQAPAYAKRIGERFSLSLPEVPPGGIWVHAVSVGESIAAAPMVRALLERHPQLPVTVTCMTPTGSERIRALFGEQVRHCYLPYDLPWAAARFLDRVRPRLAVIMETELWPNHIHACAVRGIPVALANARLSERSARGYARFAGLTRPMLAELSWIAVQTEAEAERFRRLGARPECVSVTGSIKFDLRIDPQLPLAAAALREEWDATARPLWIAASTHAGEDEIVLAAHRRLLETRPDALLILVPRHPERFAGVHELCRREGFATVRRSGGEPVARATQVLLGDTMGELLFLYALADIAFVGGSLVPNGGHNLLEPAALGKPVFAGPHLFNFLDIAAQLRDAGALLEVTDAGELCDGLARLWAQPEVATAMATAGEKVLRNNQGALERLLAGLARLLGRGG | not soluble
MDLPYYHGCLTKRECEALLLKGGVDGNFLIRDSESVPGALCLCVSFKKLVYSYRIFREKHGYYRIETDAHTPRTIFPNLQELVSKYGKPGQGLVVHLSNPIMR | soluble
GHMSVYHHILLAVDFSSEDSQVVQKVRNLASQIGARLSLIHVLDNIPMPDTPYGTAIPLDTETTYDAMLDVEKQKLSQIGNTLGIDPAHRWLVWGEPREEIIRIAEQENVDLIVVGSHGRHGLALLLGSTANSVLHYAKCDVLAVRLRDD | soluble
MAHHHHHHMGQDQSRAKACQLGQAETGGTDRSVSAGSASAAPWEAPVSLAGVEGFQVVRLLPDSPAHKAGLIPFFDIVTALDKVLLESEGKAALSFFKSYVANHRDQPVCFTTFNLYSRTYRDVYCVPSDEWGGGGLLGCSIEWTRADACPERCVHVVDVLEGSPAACSTELQANRDYIIGMQTVQETLITLIKSQKDFYCRLEAWHEEQRWALERKQFFPNERVEVPHVLLFLVYNSESNTIEEVEVEMGTNPEAAVGISVATGLLHIIPSVATADLAVGASLPVMSKFASVGHSVVTPTRAQQQEHQLLQDVSLTPAVGAAPQPREQSQESTGSAQPLPSLPLPQEAHARCAVVDSPEVHTMTNPHEPPMNSCPQPCPPRPQLQQQLTEAALYSMPSLASFNVAPPPRHDAAGGTAAAAVEMGQKPFNPFAEEASPDYDVLEGAPLAHEGVMAAEHHLGQHAPTMEQPYSSSYPPLSSQSPPLSGSLPAQMNGSHNPATALPSYSAPPPPPQQLHVTTMPTFSSQRMPPPLQFPVFPGAAAAKRAPA | not soluble
MPAGFTHFRLVTRNNMKSLTTETALDILIAWLQDNIDCGSGIIFDNDEDKTDSAALLPCIEQAREDVRTLRHLQLLHQNR | soluble
GLDTIPTTYVDAGSVFGKTGDAEKVLNGGWNYLMETFNSYANPGYGAMLRANDAMGSDVVLNSKYGFRTHNEFSAIYGKGGTNTLSWLLAYRVINDCNGVLDNIDAAEGTQADRNRIKGQALALRGFLYLHLASCYSFAIDKDPDAVCAPIYTQSTDETIAAEGKPASSVSEVYAQSINDLEEALELIPETYVRDAKHKIDNEVVLGILSRACLYARQWEKAKTYSDKLLAKDNYLMTESEYKAGFNSVDNKEWIWGHAQTNDQSNASYQFHYLDTTTKGSYYYSFNVDPYFRDLFEDGDYRKEMLFWATDPGADVESAAYVWMRNSKFRFRDIENQLGDIVLMRVAEIYLINAEAKAHLNDPDAINKLNDLKTARGAKTIHTNLSQQDLLETIWLERRKELWGEGFSLIDIIRNQQTVVRNAYPEGPIDYIYTDENGQTHTLKKKTQGHRFFNFPDKSAFCPNSKYYLYRITDSEELANKNLYKDHPKLSIYTK | soluble
